Source: PMC8368038 (The Journal of Biological Chemistry, 2021)
Each block holds one binder with its values, some of them ahead of it.

B2: KANK1_ANKRD^SF (Trx-tagged) (domain or fragment, mouse, UniProt E9Q238 1081-1360, looked up)
chain: EPEKEEIRERYELSEKMLSACNLLKYNIKDPKALASKDMRICLNTLQHDWFRVSSQKSAVPAMVGDYIAAFEAVSPDVLRYIINMADGNGNTALHYSVFHSNFQIVKLLLDADVCNVDHQNKAGYTPIMLAALAAVEAEKDMQVVEELFSCGDVNAKASQAGQTALMLAVSHGRIDMVKGLLACGADVNIQDDEGSTALMCASEHGHVEIVKLLLAQPGCNGHLEDNDGSTALSIALEAGHKDIAVLLYAHLNFSKAQSPSTPRLGRKTSPGPTHRGSFD

How the values were obtained:
[1] = molecular target: eIF4A1_NTD (residues 1-238, crystallised) (mouse, UniProt P60843 1-238); assay: crystal structure
eIF4A1 Q148L = eIF4A1 Q148L (mouse, UniProt P60843 1-406, Q148L); assay: ITC
[2] = molecular target: eukaryotic translation initiation factor 4A1 (eIF4A1), Trx-tagged (mouse, UniProt P60843 1-406); assay: ITC
[3] = molecular target: B2; assay: SEC

stoichiometry N [1]: 1
B1: KANK1_ANKRD^SF (residues 1088-1338, crystallised) (domain or fragment, mouse, UniProt E9Q238 1088-1338, looked up)
chain: RERYELSEKMLSACNLLKYNIKDPKALASKDMRICLNTLQHDWFRVSSQKSAVPAMVGDYIAAFEAVSPDVLRYIINMADGNGNTALHYSVFHSNFQIVKLLLDADVCNVDHQNKAGYTPIMLAALAAVEAEKDMQVVEELFSCGDVNAKASQAGQTALMLAVSHGRIDMVKGLLACGADVNIQDDEGSTALMCASEHGHVEIVKLLLAQPGCNGHLEDNDGSTALSIALEAGHKDIAVLLYAHLNFSKAQ

Binder: B2
Kd (eIF4A1 Q148L): 1900 nM
binding result [2]: binds

binding result [3]: binds
B3: eIF4A1 NTD (residues 1-237) (domain or fragment, mouse, UniProt P60843 1-237, looked up)
chain: MSASQDSRSRDNGPDGMEPEGVIESNWNEIVDSFDDMNLSESLLRGIYAYGFEKPSAIQQRAILPCIKGYDVIAQAQSGTGKTATFAISILQQIELDLKATQALVLAPTRELAQQIQKVVMALGDYMGASCHACIGGTNVRAEVQKLQMEAPHIIVGTPGRVFDMLNRRYLSPKYIKMFVLDEADEMLSRGFKDQIYDIFQKLNSNTQVVLLSATMPSDVLEVTKKFMRDPIRILVK
